Experimental data as given in patent US20140087995A1 (published 2014).
Numbered stars: 1 amine (or outer) side, 2 acyl side, 3 side chain; on linkers, the order of the positions; unused ones are H or OH. Bridge positions count the residues as written; N and C are the ends. Side chains are listed from the residue outwards. Ends that are not written are not given here. * marks the point of attachment. C20 diacid = O=C(O)CCCCCCCCCCCCCCCCCCC(=O)*; γGlu = O=C(O)[C@H](CCC(=O)[*:2])N[*:1]

T1: human amylin 3(a) receptor (human calcitonin receptor co-expressed with RAMP-3) (human, UniProt P30988 25-474; O60896 24-148, limits assumed)
T1 sequence (looked up) 1: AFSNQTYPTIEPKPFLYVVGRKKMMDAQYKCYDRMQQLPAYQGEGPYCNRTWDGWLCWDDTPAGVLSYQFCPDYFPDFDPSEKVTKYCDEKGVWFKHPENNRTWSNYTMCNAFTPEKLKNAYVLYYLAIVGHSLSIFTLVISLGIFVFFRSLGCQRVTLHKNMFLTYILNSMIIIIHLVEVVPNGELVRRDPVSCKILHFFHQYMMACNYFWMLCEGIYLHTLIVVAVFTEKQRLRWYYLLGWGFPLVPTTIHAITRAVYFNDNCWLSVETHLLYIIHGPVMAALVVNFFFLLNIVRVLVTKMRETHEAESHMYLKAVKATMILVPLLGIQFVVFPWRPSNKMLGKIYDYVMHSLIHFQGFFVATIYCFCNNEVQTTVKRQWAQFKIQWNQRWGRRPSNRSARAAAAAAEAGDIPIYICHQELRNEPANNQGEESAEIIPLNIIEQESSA
T1 sequence (looked up) 2: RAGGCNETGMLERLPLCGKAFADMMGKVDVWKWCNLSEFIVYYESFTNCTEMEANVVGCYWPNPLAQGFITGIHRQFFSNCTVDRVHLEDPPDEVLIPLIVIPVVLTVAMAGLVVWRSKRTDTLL

T2: human calcitonin receptor (human, UniProt P30988 25-474)
T2 sequence (looked up): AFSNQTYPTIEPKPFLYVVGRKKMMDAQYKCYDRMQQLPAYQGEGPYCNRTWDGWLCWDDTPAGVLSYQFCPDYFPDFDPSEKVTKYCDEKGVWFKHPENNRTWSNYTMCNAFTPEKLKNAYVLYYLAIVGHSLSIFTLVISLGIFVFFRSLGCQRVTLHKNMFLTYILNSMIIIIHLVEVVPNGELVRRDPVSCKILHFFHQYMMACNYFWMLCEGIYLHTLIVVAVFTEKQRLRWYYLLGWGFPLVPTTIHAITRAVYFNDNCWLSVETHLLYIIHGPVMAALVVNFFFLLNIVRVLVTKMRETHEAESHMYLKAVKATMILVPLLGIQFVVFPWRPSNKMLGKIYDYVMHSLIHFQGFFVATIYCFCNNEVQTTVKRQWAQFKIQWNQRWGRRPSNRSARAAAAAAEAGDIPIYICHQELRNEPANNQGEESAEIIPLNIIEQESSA


Assays:
[1] = target: T1, human amylin 3(a) receptor (human …); experiment: cell-based or functional assay
[2] = target: T2, human calcitonin receptor; experiment: cell-based or functional assay

Binder	hAmylin-R funct. EC50 [1]	Ratio hCT/hAmylin funct. [2]	hCTR funct. EC50 [2]
K([γGlu-γGlu-C20 diacid])CNTATCATQRLAEFLRHSSPNFGAIPSSTNVGHETY-NH2 (disulfide 2-7; N-terminus assumed; SMILES CC[C@H](C)[C@H](NC(=O)[C@H](C)NC(=O)CNC(=O)[C@H](Cc1ccccc1)NC(=O)[C@H](CC(N)=O)NC(=O)[C@@H]1CCCN1C(=O)[C@H](CO)NC(=O)[C@H](CO)NC(=O)[C@H](Cc1c[nH]cn1)NC(=O)[C@H](CCCNC(=N)N)NC(=O)[C@H](CC(C)C)NC(=O)[C@H](Cc1ccccc1)NC(=O)[C@H](CCC(=O)O)NC(=O)[C@H](C)NC(=O)[C@H](CC(C)C)NC(=O)[C@H](CCCNC(=N)N)NC(=O)[C@H](CCC(N)=O)NC(=O)[C@@H](NC(=O)[C@H](C)NC(=O)[C@@H]1CSSC[C@H](NC(=O)[C@@H](N)CCCCNC(=O)CC[C@H](NC(=O)CC[C@H](NC(=O)CCCCCCCCCCCCCCCCCCC(=O)O)C(=O)O)C(=O)O)C(=O)N[C@@H](CC(N)=O)C(=O)N[C@@H]([C@@H](C)O)C(=O)N[C@@H](C)C(=O)N[C@@H]([C@@H](C)O)C(=O)N1)[C@@H](C)O)C(=O)N1CCC[C@H]1C(=O)N[C@@H](CO)C(=O)N[C@@H](CO)C(=O)N[C@H](C(=O)N[C@@H](CC(N)=O)C(=O)N[C@H](C(=O)NCC(=O)N[C@@H](Cc1c[nH]cn1)C(=O)N[C@@H](CCC(=O)O)C(=O)N[C@H](C(=O)N[C@@H](Cc1ccc(O)cc1)C(N)=O)[C@@H](C)O)C(C)C)[C@@H](C)O)	0.445 nM	15.8	7.05 nM
K([γGlu-γGlu-C20 diacid])CNTATCATQRLAEFLRHSSPNFGAIPSSTNVGPRTY-NH2 (disulfide 2-7; N-terminus assumed; SMILES CC[C@H](C)[C@H](NC(=O)[C@H](C)NC(=O)CNC(=O)[C@H](Cc1ccccc1)NC(=O)[C@H](CC(N)=O)NC(=O)[C@@H]1CCCN1C(=O)[C@H](CO)NC(=O)[C@H](CO)NC(=O)[C@H](Cc1c[nH]cn1)NC(=O)[C@H](CCCNC(=N)N)NC(=O)[C@H](CC(C)C)NC(=O)[C@H](Cc1ccccc1)NC(=O)[C@H](CCC(=O)O)NC(=O)[C@H](C)NC(=O)[C@H](CC(C)C)NC(=O)[C@H](CCCNC(=N)N)NC(=O)[C@H](CCC(N)=O)NC(=O)[C@@H](NC(=O)[C@H](C)NC(=O)[C@@H]1CSSC[C@H](NC(=O)[C@@H](N)CCCCNC(=O)CC[C@H](NC(=O)CC[C@H](NC(=O)CCCCCCCCCCCCCCCCCCC(=O)O)C(=O)O)C(=O)O)C(=O)N[C@@H](CC(N)=O)C(=O)N[C@@H]([C@@H](C)O)C(=O)N[C@@H](C)C(=O)N[C@@H]([C@@H](C)O)C(=O)N1)[C@@H](C)O)C(=O)N1CCC[C@H]1C(=O)N[C@@H](CO)C(=O)N[C@@H](CO)C(=O)N[C@H](C(=O)N[C@@H](CC(N)=O)C(=O)N[C@H](C(=O)NCC(=O)N1CCC[C@H]1C(=O)N[C@@H](CCCNC(=N)N)C(=O)N[C@H](C(=O)N[C@@H](Cc1ccc(O)cc1)C(N)=O)[C@@H](C)O)C(C)C)[C@@H](C)O, also called compound 110)	0.278 nM	29.3	8.16 nM
K([γGlu-γGlu-C20 diacid])CNTATCATQRLAHFLRHSSPNFGAIPSSTNVGSNTY-NH2 (disulfide 2-7; N-terminus assumed; SMILES CC[C@H](C)[C@H](NC(=O)[C@H](C)NC(=O)CNC(=O)[C@H](Cc1ccccc1)NC(=O)[C@H](CC(N)=O)NC(=O)[C@@H]1CCCN1C(=O)[C@H](CO)NC(=O)[C@H](CO)NC(=O)[C@H](Cc1c[nH]cn1)NC(=O)[C@H](CCCNC(=N)N)NC(=O)[C@H](CC(C)C)NC(=O)[C@H](Cc1ccccc1)NC(=O)[C@H](Cc1c[nH]cn1)NC(=O)[C@H](C)NC(=O)[C@H](CC(C)C)NC(=O)[C@H](CCCNC(=N)N)NC(=O)[C@H](CCC(N)=O)NC(=O)[C@@H](NC(=O)[C@H](C)NC(=O)[C@@H]1CSSC[C@H](NC(=O)[C@@H](N)CCCCNC(=O)CC[C@H](NC(=O)CC[C@H](NC(=O)CCCCCCCCCCCCCCCCCCC(=O)O)C(=O)O)C(=O)O)C(=O)N[C@@H](CC(N)=O)C(=O)N[C@@H]([C@@H](C)O)C(=O)N[C@@H](C)C(=O)N[C@@H]([C@@H](C)O)C(=O)N1)[C@@H](C)O)C(=O)N1CCC[C@H]1C(=O)N[C@@H](CO)C(=O)N[C@@H](CO)C(=O)N[C@H](C(=O)N[C@@H](CC(N)=O)C(=O)N[C@H](C(=O)NCC(=O)N[C@@H](CO)C(=O)N[C@@H](CC(N)=O)C(=O)N[C@H](C(=O)N[C@@H](Cc1ccc(O)cc1)C(N)=O)[C@@H](C)O)C(C)C)[C@@H](C)O, also called compound 92)	0.085 nM	28	2.38 nM
{C20 diacid-γGlu}-GRCNTATCATQRLAHFLRHSSPNFGAIPSSTNVGHNTY-NH2 (disulfide 3-8; SMILES CC[C@H](C)[C@H](NC(=O)[C@H](C)NC(=O)CNC(=O)[C@H](Cc1ccccc1)NC(=O)[C@H](CC(N)=O)NC(=O)[C@@H]1CCCN1C(=O)[C@H](CO)NC(=O)[C@H](CO)NC(=O)[C@H](Cc1c[nH]cn1)NC(=O)[C@H](CCCNC(=N)N)NC(=O)[C@H](CC(C)C)NC(=O)[C@H](Cc1ccccc1)NC(=O)[C@H](Cc1c[nH]cn1)NC(=O)[C@H](C)NC(=O)[C@H](CC(C)C)NC(=O)[C@H](CCCNC(=N)N)NC(=O)[C@H](CCC(N)=O)NC(=O)[C@@H](NC(=O)[C@H](C)NC(=O)[C@@H]1CSSC[C@H](NC(=O)[C@H](CCCNC(=N)N)NC(=O)CNC(=O)CC[C@H](NC(=O)CCCCCCCCCCCCCCCCCCC(=O)O)C(=O)O)C(=O)N[C@@H](CC(N)=O)C(=O)N[C@@H]([C@@H](C)O)C(=O)N[C@@H](C)C(=O)N[C@@H]([C@@H](C)O)C(=O)N1)[C@@H](C)O)C(=O)N1CCC[C@H]1C(=O)N[C@@H](CO)C(=O)N[C@@H](CO)C(=O)N[C@H](C(=O)N[C@@H](CC(N)=O)C(=O)N[C@H](C(=O)NCC(=O)N[C@@H](Cc1c[nH]cn1)C(=O)N[C@@H](CC(N)=O)C(=O)N[C@H](C(=O)N[C@@H](Cc1ccc(O)cc1)C(N)=O)[C@@H](C)O)C(C)C)[C@@H](C)O, also called compound 100)	0.253 nM	6.8	1.73 nM
{C20 diacid-γGlu}-GRCNTATCATQRLAAFLRHSSPNFGAIPSSTNVGHNTY-NH2 (disulfide 3-8; SMILES CC[C@H](C)[C@H](NC(=O)[C@H](C)NC(=O)CNC(=O)[C@H](Cc1ccccc1)NC(=O)[C@H](CC(N)=O)NC(=O)[C@@H]1CCCN1C(=O)[C@H](CO)NC(=O)[C@H](CO)NC(=O)[C@H](Cc1c[nH]cn1)NC(=O)[C@H](CCCNC(=N)N)NC(=O)[C@H](CC(C)C)NC(=O)[C@H](Cc1ccccc1)NC(=O)[C@H](C)NC(=O)[C@H](C)NC(=O)[C@H](CC(C)C)NC(=O)[C@H](CCCNC(=N)N)NC(=O)[C@H](CCC(N)=O)NC(=O)[C@@H](NC(=O)[C@H](C)NC(=O)[C@@H]1CSSC[C@H](NC(=O)[C@H](CCCNC(=N)N)NC(=O)CNC(=O)CC[C@H](NC(=O)CCCCCCCCCCCCCCCCCCC(=O)O)C(=O)O)C(=O)N[C@@H](CC(N)=O)C(=O)N[C@@H]([C@@H](C)O)C(=O)N[C@@H](C)C(=O)N[C@@H]([C@@H](C)O)C(=O)N1)[C@@H](C)O)C(=O)N1CCC[C@H]1C(=O)N[C@@H](CO)C(=O)N[C@@H](CO)C(=O)N[C@H](C(=O)N[C@@H](CC(N)=O)C(=O)N[C@H](C(=O)NCC(=O)N[C@@H](Cc1c[nH]cn1)C(=O)N[C@@H](CC(N)=O)C(=O)N[C@H](C(=O)N[C@@H](Cc1ccc(O)cc1)C(N)=O)[C@@H](C)O)C(C)C)[C@@H](C)O)	0.109 nM	4.9	0.537 nM
{C20 diacid-γGlu}-GRCNTATCATQRLAAFLRHSSPNFGAIPSSTNVGPNTY-NH2 (disulfide 3-8)	0.07 nM	2.1	0.148 nM
{C20 diacid-γGlu}-GRCNTATCATQRLAHFLRHSSPNFGAIPSSTNVGPNTY-NH2 (disulfide 3-8; SMILES CC[C@H](C)[C@H](NC(=O)[C@H](C)NC(=O)CNC(=O)[C@H](Cc1ccccc1)NC(=O)[C@H](CC(N)=O)NC(=O)[C@@H]1CCCN1C(=O)[C@H](CO)NC(=O)[C@H](CO)NC(=O)[C@H](Cc1c[nH]cn1)NC(=O)[C@H](CCCNC(=N)N)NC(=O)[C@H](CC(C)C)NC(=O)[C@H](Cc1ccccc1)NC(=O)[C@H](Cc1c[nH]cn1)NC(=O)[C@H](C)NC(=O)[C@H](CC(C)C)NC(=O)[C@H](CCCNC(=N)N)NC(=O)[C@H](CCC(N)=O)NC(=O)[C@@H](NC(=O)[C@H](C)NC(=O)[C@@H]1CSSC[C@H](NC(=O)[C@H](CCCNC(=N)N)NC(=O)CNC(=O)CC[C@H](NC(=O)CCCCCCCCCCCCCCCCCCC(=O)O)C(=O)O)C(=O)N[C@@H](CC(N)=O)C(=O)N[C@@H]([C@@H](C)O)C(=O)N[C@@H](C)C(=O)N[C@@H]([C@@H](C)O)C(=O)N1)[C@@H](C)O)C(=O)N1CCC[C@H]1C(=O)N[C@@H](CO)C(=O)N[C@@H](CO)C(=O)N[C@H](C(=O)N[C@@H](CC(N)=O)C(=O)N[C@H](C(=O)NCC(=O)N1CCC[C@H]1C(=O)N[C@@H](CC(N)=O)C(=O)N[C@H](C(=O)N[C@@H](Cc1ccc(O)cc1)C(N)=O)[C@@H](C)O)C(C)C)[C@@H](C)O)	0.062 nM	2.9	0.179 nM
